Reference: article PMC9352664 (Nature Communications, 2022)

Assays:
[1] = target: HiSiaQM K273C-biotin (Haemophilus influenzae) (UniProt P44543); experiment: SPR
[2] = target: HiSiaQM (wild type) (Haemophilus influenzae) (UniProt P44543); experiment: single-molecule TIRF microscopy on solid-supported bilayers; HiSiaQM in DOPC solid-supported bilayers, AF-647-labelled P-domain without sialic acid; 20 mM HEPES, 150 mM NaCl, pH 7.4
HiSiaP (P-domain) [3] = target: T1, HiSiaP (P-domain) (Haemophilus influenzae, UniProt P44542, S83R); conditions: read-out: affinity; 50 mM Tris, 50 mM NaCl, pH 8; one approximate value printed for all three mutants
T1 construct: gene siaP

HiSiaP (P-domain) [4] = target: T2, HiSiaP (P-domain) (Haemophilus influenzae, UniProt P44542, E195R); conditions: read-out: affinity; 50 mM Tris, 50 mM NaCl, pH 8; one approximate value printed for all three mutants
T2 construct: gene siaP

HiSiaP (P-domain) [5] = target: T3, HiSiaP (P-domain) (Haemophilus influenzae, UniProt P44542, D81R); conditions: read-out: affinity; 50 mM Tris, 50 mM NaCl, pH 8; one approximate value printed for all three mutants
T3 construct: gene siaP

HiSiaQM K273C-biotin = target: T4, HiSiaQM K273C-biotin (Haemophilus influenzae, UniProt P44543, Maleimide-PEG2-biotin on the introduced cysteine K273C)
T4 chain: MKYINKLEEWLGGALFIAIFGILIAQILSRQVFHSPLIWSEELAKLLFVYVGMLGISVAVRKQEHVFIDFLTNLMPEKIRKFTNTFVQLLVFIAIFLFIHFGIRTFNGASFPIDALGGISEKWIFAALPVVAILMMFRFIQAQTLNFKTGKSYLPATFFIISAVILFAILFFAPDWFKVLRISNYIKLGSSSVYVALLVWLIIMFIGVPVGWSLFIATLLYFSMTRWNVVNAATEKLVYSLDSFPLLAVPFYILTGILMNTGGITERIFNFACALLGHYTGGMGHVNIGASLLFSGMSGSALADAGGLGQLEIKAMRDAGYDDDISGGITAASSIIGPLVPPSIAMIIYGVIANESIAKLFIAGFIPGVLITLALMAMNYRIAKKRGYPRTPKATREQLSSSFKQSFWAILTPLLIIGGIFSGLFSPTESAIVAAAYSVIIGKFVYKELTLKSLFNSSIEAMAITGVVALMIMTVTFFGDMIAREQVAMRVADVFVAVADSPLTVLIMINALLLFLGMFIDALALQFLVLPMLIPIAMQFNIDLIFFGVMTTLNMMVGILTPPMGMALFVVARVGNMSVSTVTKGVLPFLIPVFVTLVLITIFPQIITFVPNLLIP

HiSiaQM (wild type) [6] = target: T5, HiSiaQM (wild type) (Haemophilus influenzae, UniProt P44543); experiment: single-molecule TIRF microscopy on solid-supported bilayers; HiSiaQM in DOPC solid-supported bilayers pre-incubated with unlabelled VHHQM3 for at least 30 min, then AF-647-labelled P-domain added; conditions: both partners purified
T5 construct: also called QM-domains; native QM-domains

HiSiaQM (wild type) [7] = target: T5, HiSiaQM (wild type); experiment: single-molecule TIRF microscopy on solid-supported bilayers; HiSiaQM in DOPC solid-supported bilayers stained with VHHQM3-AF-555, incubated at least 30 min, bilayer washed 5 times; conditions: both partners purified

## HiSiaP (wild type) (from UniProt P44542 24-329) (natural protein)
[1]
  Kd: 1000 nM

## HiSiaP K254C labelled with AF-647 (from UniProt P44542) (natural protein; other documents disagree on this pair)
[2]
  reduction of P–QM binding events in the absence of sialic acid: 50%

## CC(=O)N[C@H]1[C@H]([C@H](O)[C@H](O)CO)OC(O)(C(=O)O)C[C@@H]1O (stereo partly shown) [sialic acid]
HiSiaP (P-domain) [3]
  Kd: ~50 nM
HiSiaP (P-domain) [4]
  Kd: ~50 nM
HiSiaP (P-domain) [5]
  Kd: ~50 nM

B1: VHHQM7 (VHH)
VHH: QVQLVESGGGLVQPGGSLRLSCAASGFTLSYHAIGWFRQAPGKEREGVSFISSSGSSTNYADSVKGRFTISKDNAKNTVYLQMDSLKPEDTAVYYCARSAAYGSSWLNPSRYDYWGQGTQVTVSS
HiSiaQM K273C-biotin
  Kd: 4.88 nM

B2: VHHQM9 (VHH)
VHH: QLQLVESGGRSVQAGGSLRLSCAASGRAFTMAWFRQAPGKEREFVAARTWPVEYGYYADSVKDRFTISRDNAKNILYLQMTSLHPEDTAMYYCAASTANRDSVNVRFSDQYAYWGPGTQVTVSV
HiSiaQM K273C-biotin
  Kd: 0.36 nM

B3: VHHQM6 (VHH)
VHH: QLQLVESGGGLVQAGGSLRLSCTASRVTLNYHDIGWFRQAPGKEREGVSYISSSGGSTKYADFVKGRFTISRDNAKNTVYLQMNSLKPEDTAVYYCARSAAYGSSWLNPSRYDYWGQGTQVTVSS
HiSiaQM K273C-biotin
  Kd: 0.64 nM

B4: VHHQM3 (VHH)
VHH: QLQLVETGGGLVQPGGSLRLSCTASRVTLDYHDIGWFRQAPGKEREGVSYISSSGGSTNYADSVKGRFTISRDNAKNTVYLQMNSLKPEDTAVYYCARSSAYGSSWLNPSRYDYWGQGTQVTVSS
HiSiaQM (wild type) [6]
  binding result: binds

B5: VHHQM3 S85C labelled with AF-555 (VHH)
VHH: QLQLVETGGGLVQPGGSLRLSCTASRVTLDYHDIGWFRQAPGKEREGVSYISSSGGSTNYADSVKGRFTISRDNAKNTVYLQMNCLKPEDTAVYYCARSSAYGSSWLNPSRYDYWGQGTQVTVSS
HiSiaQM (wild type) [7]
  binding result: binds

B6: VHHQM2 (VHH)
VHH: QVQLVESGGGLVQPGESLRLSCAASGSTFSSYGMSWVRQAPRKGPEWVSSISASGTLTRYADFVKGRFTVSRDNAKNTLFLQMNSLKPEDTALYYCARGGAPSVVYNRHDWGQGTQVTVSS
HiSiaQM K273C-biotin
  Kd: 9.83 nM

B7: VHHQM4 (VHH)
VHH: QVQLVETGGGLVQPGGSLRLSCAASAFTYDNYGIGWFRQAPGKEREGVSCISSSGGTVNYADSVKGRFTISRDNAKNTVYLQMNSLKPEDTAVYYCAALKYGSSCRFLRAANFGSWGQGTRVTVSS
HiSiaQM K273C-biotin
  Kd: 10.4 nM

B8: VHHQM5 (VHH)
VHH: QVQLVESGGGLVQPGGSLRLSCATSRFTLNYYDIGWFRQAPGKEREGVSCITSSGGNTNYADSVKGRFTISRDNAKNTVYLQMNSLKPEDTAIYYCAAAKYGSAWPCSSMPLRDFGSWGQGTQVTVSS
HiSiaQM K273C-biotin
  Kd: 1.06 nM
